According to patent publication US20230125561A1 (published 2023):

Molecular target: SARS-CoV-2 Spike S1 protein, B.1.351 (S. African) variant (SARS-CoV-2, UniProt P0DTC2 16-685)
Assay: ELISA

B1: Neumifil (HEX17: trimeric (hexavalent) form based on S. pneumoniae CBM40) (designed binder)
chain: GAMVIEKEDVETNASNGQRVDLSSELDKLKKLENATVHMEFKPDPKAPAFYNLFSVSSATKKDEYFTMAVYNNTATLEGRGSDGKQFYNNYNDAPLKVKPGQWNSVTFTVEKPTAELPKGRARLYVNGGLSRTSLRSGNFIKDMPDVTHVQIGATKRANNTVWGSNLQIRNLTVYNRALTPEEVQKRSGGGSGVIEKEDVETNASNGQRVDLSSELDKLKKLENATVHMEFKPDPKAPAFYNLFSVSSATKKDEYFTMAVYNNTATLEGRGSDGKQFYNNYNDAPLKVKPGQWNSVTFTVEKPTAELPKGRARLYVNGGLSRTSLRSGNFIKDMPDVTHVQIGATKRANNTVWGSNLQIRNLTVYNRALTPEEVQKRSGGSLGVPDFESDWFDVSSNSLYTLSHGLQRSPRRVVVEFARSSSPSTWNIVMPSYFNDGGHKGSGAQVEVGSLNIKLGTGAAVWGTGYFGGIDNSATTRFATGYYRVRAWI
EC50: 0.17 µg/mL
